The values below are quoted from earlier work in publication PMC3347567.

As usually defined, the Kd is the equilibrium constant for the complex coming apart.

This data set deals with PEDF-R (Homo sapiens) (UniProt Q96AD5).
UniProt Q96AD5, sequence (Q96AD5 whole entry): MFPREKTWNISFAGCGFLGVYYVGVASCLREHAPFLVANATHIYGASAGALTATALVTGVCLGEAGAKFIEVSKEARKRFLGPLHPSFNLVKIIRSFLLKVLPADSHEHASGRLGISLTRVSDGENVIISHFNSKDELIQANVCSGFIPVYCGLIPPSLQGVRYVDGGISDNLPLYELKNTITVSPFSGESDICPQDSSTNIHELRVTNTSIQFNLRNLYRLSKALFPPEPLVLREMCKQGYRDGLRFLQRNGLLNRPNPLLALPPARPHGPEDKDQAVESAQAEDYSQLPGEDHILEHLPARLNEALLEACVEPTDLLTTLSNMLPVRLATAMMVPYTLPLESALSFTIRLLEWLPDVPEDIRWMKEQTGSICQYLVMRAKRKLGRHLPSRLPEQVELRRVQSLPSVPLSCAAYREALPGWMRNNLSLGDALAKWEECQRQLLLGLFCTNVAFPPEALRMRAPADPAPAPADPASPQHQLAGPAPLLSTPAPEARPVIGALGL

Take PEDF (from UniProt P36955): the Kd is 3.03 nM.
